Source: patent publication US6991790 (Genentech, dated 2006)

Legend:
[1] = target: T1, recombinant preparation of soluble MAC-1 (UniProt P11215 17-1104; P05107 23-700); test: MAC-1 capture ELISA titer over UV concentration; F2 after three freeze/thaw cycles -70° C. to 5° C.
[2] = target: T1, recombinant preparation of soluble MAC-1; test: MAC-1 capture ELISA titer over UV concentration; F4 after three freeze/thaw cycles -70° C. to 5° C.
[3] = target: T1, recombinant preparation of soluble MAC-1; test: MAC-1 capture ELISA titer over UV concentration; F3 after three freeze/thaw cycles -20° C. to 5° C.
[4] = target: T1, recombinant preparation of soluble MAC-1; test: MAC-1 capture ELISA titer over UV concentration; freeze/thaw study, F2, held at 5° C. (control)
[5] = target: T1, recombinant preparation of soluble MAC-1; test: MAC-1 capture ELISA titer over UV concentration; F4 after three freeze/thaw cycles -20° C. to 5° C.
[6] = target: T1, recombinant preparation of soluble MAC-1; test: MAC-1 capture ELISA titer over UV concentration; freeze/thaw study, F1, held at 5° C. (control)
[7] = target: T1, recombinant preparation of soluble MAC-1; test: MAC-1 capture ELISA titer over UV concentration; F1 after three freeze/thaw cycles -70° C. to 5° C.
[8] = target: T1, recombinant preparation of soluble MAC-1; test: MAC-1 capture ELISA titer over UV concentration; freeze/thaw study, F5, held at 5° C. (control)
[9] = target: T1, recombinant preparation of soluble MAC-1; test: MAC-1 capture ELISA titer over UV concentration; freeze/thaw study, F4, held at 5° C. (control)
[10] = target: T1, recombinant preparation of soluble MAC-1; test: MAC-1 capture ELISA titer over UV concentration; F5 after three freeze/thaw cycles -20° C. to 5° C.
[11] = target: T1, recombinant preparation of soluble MAC-1; test: MAC-1 capture ELISA titer over UV concentration; F1 after three freeze/thaw cycles -20° C. to 5° C.
[12] = target: T1, recombinant preparation of soluble MAC-1; test: MAC-1 capture ELISA titer over UV concentration; freeze/thaw study, F3, held at 5° C. (control)
[13] = target: T1, recombinant preparation of soluble MAC-1; test: MAC-1 capture ELISA titer over UV concentration; F5 after three freeze/thaw cycles -70° C. to 5° C.
[14] = target: T1, recombinant preparation of soluble MAC-1; test: MAC-1 capture ELISA titer over UV concentration; F2 after three freeze/thaw cycles -20° C. to 5° C.
[15] = target: T1, recombinant preparation of soluble MAC-1; test: MAC-1 capture ELISA titer over UV concentration; F3 after three freeze/thaw cycles -70° C. to 5° C.

B1: recombinant humanized anti-CD18 antibody (rhuMAb CD18) (antibody, V domains shown)
VH: EVQLVESGGGLVQPGGSLRLSCATSGYTFTEYTMHWMRQAPGKGLEWVAGINPKNGGTSHNQRFMDRFTISVDKSTSTAYMQMNSLRAEDTAVYYCARWRGLNYGFDVRYFDVWGQGTLVTVSS
VL: DIQMTQSPSSLSASVGDRVTITCRASQDINNYLNWYQQKPGKAPKLLIYYTSTLHSGVPSRFSGSGSGTDYTLTISSLQPEDFATYYCQQGNTLPPTFGQGTKVEIKR
notes: Tested as an F(ab')2 of two light and two heavy chains linked by disulfide bonds, made in E. coli; It was humanized from murine muMAb H52; It says the antibody is directed to the CD18 chain of MAC-1; also called anti-CD18 F(ab')2 antibody; humanized H52 antibody
Q: What does the source list for B1?
A: Specific Activity (MAC-1/UV) [1]: 1.13 ratio (MAC-1/UV); Specific Activity (MAC-1/UV) [2]: 1.06 ratio (MAC-1/UV); Specific Activity (MAC-1/UV) [3]: 1.08 ratio (MAC-1/UV); Specific Activity (MAC-1/UV) [4]: 1.14 ratio (MAC-1/UV); Specific Activity (MAC-1/UV) [5]: 1.09 ratio (MAC-1/UV); Specific Activity (MAC-1/UV) [6]: 1.05 ratio (MAC-1/UV); Specific Activity (MAC-1/UV) [7]: 1.03 ratio (MAC-1/UV); Specific Activity (MAC-1/UV) [8]: 1.14 ratio (MAC-1/UV); Specific Activity (MAC-1/UV) [9]: 0.98 ratio (MAC-1/UV); Specific Activity (MAC-1/UV) [10]: 1.09 ratio (MAC-1/UV); Specific Activity (MAC-1/UV) [11]: 1 ratio (MAC-1/UV); Specific Activity (MAC-1/UV) [12]: 1.1 ratio (MAC-1/UV); Specific Activity (MAC-1/UV) [13]: 1.09 ratio (MAC-1/UV); Specific Activity (MAC-1/UV) [14]: 1.2 ratio (MAC-1/UV); Specific Activity (MAC-1/UV) [15]: 1.1 ratio (MAC-1/UV)
